Data on 49 molecules can be found in patent US20220273759A1, “PHARMACEUTICAL ASSOCIATION FOR CONVERTING A NEOPLASTIC CELL INTO A NON-NEOPLASTIC CELL AND USES THEREOF” (HISTIDE AG, priority 2015, published 2022).

The subject of assay [1] is Smad1/5/8 signaling pathway. The assay is described as follows: Growth factor receptor activation: western blot quantification of phospho-smad1/5/8. As to conditions: Table 4; human osteosarcoma cells MG63; quantification of western blots of phospho-smad1/5/8. It is filed as cell-based. The protocol: After 24 hours of culture, cells were permeabilized (10% SDS, 25 mM NaCl, 10 nM pepstatin and 10 nM leupeptin in distilled water and loading buffer), boiled for 10 minutes and resolved by reducing PAGE (Invitrogen). Proteins were transferred onto nitrocellulose, blocked, and labeled with HRP-conjugated antibodies (Invitrogen). Integrin αv, α5, +3, α4, β1, β3, β5 and […] were blotted by treating the nitrocellulose with monoclonal anti-integrin (extracellular domain) αv, α5, +3, α4, β1, β3, β5 and β6 antibodies (Santa Cruz Biotechnology). Phosphor-Smad1/5/8 was blotted by treating the nitrocellulose with monoclonal anti-p-Smad1/5/8 (Santa Cruz Biotechnology). For all of the experiments the western blot was performed in triplicate, along with an additional blot for actin and coomassie blue staining to ensure constant protein load among samples.

The subject of assay [2] is human osteosarcoma cells, MG63. The assay is described as follows: Tumor cell recoding via quantification of pRB and p53 (immunofluorescence staining, ImageJ). It is filed as cell-based. As for the experimental part: The cells were first fixed for 20 min with 4% paraformaldehyde/PBS at 4° C. After fixation, the cells were permeabilized in PBS containing 1% Triton X-100 for 15 min. Protein immunofluorescent visualization was performed by first treating the cells with 1% (v/v) specific monoclonal antibodies for 1 hour at 37° C. Then the samples were incubated with Alexa Fluor® 568 or 647 (F(ab′)2 fragment of IgG(H+L)) during 30 min at room temperature. The cell nuclei were counterstained in 20 ng/mL DAPI for 10 min at room temperature.
For this type of quantification the freeware image analysis ImageJ® software was used. The raw image was first converted to an 8-bit file, and then the unsharp mask feature was used (settings 1:0.2) to remove the image background (rolling ball radius 10). After smoothing, the resulting image, which appears similar to the original photomicrograph but with minimal background, was then converted to a binary image by setting a threshold. Threshold values were determined empirically by selecting a setting, which gave the most accurate binary image for a subset of randomly selected photomicrographs. The cell area was determined by manual delineation on raw fluorescent images. Total contact area and mean contact area per cell were calculated by “analyse particules” in ImageJ®. A minimum of 50 cells per condition were analyzed.
Neoplastic cells (in this example osteosarcoma cells) were cultured on pharmaceutical associations comprising PET as a bioactive carrier and one of GFR-binding compounds of SEQ ID NO: 11 to 14, 24 to 26 and 51 to 63. A rapid (24 hours) decrease of the tumor markers was observed (FIG. 7). The adhesion checkpoint then activates the tumor suppressor proteins p53 and pRB. […]

The target of the next assay is growth factor receptors. The assay is described as follows: cell-based or functional assay.
Where [3] appears, read: Table 4, MG63, quantification of pRB.
Where [4] appears, read: Table 5, MG63, quantification of pRB.
The mark [5] stands for this setting: Table 6, peptide in association with PET, MG63 cells.

As to “ASAAPSSAPTALSATSVLYY (Non-cyclic GFR-binding peptide) [SEQ ID NO: 82]”, in assay [1], the “p-Smad1/5/8 (%)” value is recorded as 41%. Moreover, the “pRB (%)” value in assay [2] (setting [3]) and in assay [2] (setting [4]) was 19% each time.

Turning to “SIPKASSTPTELSPINMLYF (Non-cyclic GFR-binding peptide) [SEQ ID NO: 64]”, the “p-Smad1/5/8 (%)” value in assay [1] turned out to be 37%. In addition, the “pRB (%)” value in assay [2] (setting [3]) and in assay [2] (setting [4]) was 23% throughout. Consider “NDEGLESVPEDLSSLSVLFF (Non-cyclic GFR-binding peptide) [SEQ ID NO: 201]”, for which, in assay [2] (setting [5]), the “P53 (%)” value was determined as 29% and the “pRB (%)” value worked out at 12%. As to “RNVQSRPVPTQLSPISVLYK (Non-cyclic GFR-binding peptide) [SEQ ID NO: 86]”, the “p-Smad1/5/8 (%)” value in assay [1] amounted to 26%. The “pRB (%)” value in assay [2] (setting [3]) and in assay [2] (setting [4]) was 24% in each case.

In the case of “GIPEPSSAPVDLKPLSTLYV (Non-cyclic GFR-binding peptide) [SEQ ID NO: 206]”, in assay [2] (setting [5]), the “P53 (%)” value is on record as 32% and the “pRB (%)” value is 12%. In the case of “RVPSTSSAPTKMNAISMLYF (Non-cyclic GFR-binding peptide) [SEQ ID NO: 203]”, in assay [2] (setting [5]), the “P53 (%)” value came to 31% and the “pRB (%)” value is 9%. The corresponding values for “RVPSTSSVPTGQSAISTLYL (Non-cyclic GFR-binding peptide) [SEQ ID NO: 202]” are 25% and 10%. For “GIPEPSSAPTELSATSILYY (Non-cyclic GFR-binding peptide) [SEQ ID NO: 204]”, in that order: 33% and 16%. The corresponding values for “STPPTSSVPTELSPISTLYK (Non-cyclic GFR-binding peptide) [SEQ ID NO: 205]” are 41% and 20%. As to “KIPKASSVSQKMEPLTMLYY (Non-cyclic GFR-binding peptide) [SEQ ID NO: 208]”, in assay [2] (setting [5]), the “P53 (%)” value is reported as 30% and the “pRB (%)” value was 12%. The corresponding values for “KIPKASSVPTGGSNITVQIM (Non-cyclic GFR-binding peptide) [SEQ ID NO: 209]” are 45% and 11%.

As to “AASKASSVPQEEEPLPMVYY (Non-cyclic GFR-binding peptide) [SEQ ID NO: 207]”, in assay [2] (setting [5]), the “P53 (%)” value is reported as 24% and the “pRB (%)” value stood at 17%. RNVQSRPVPTQLSPISVLYK [GFR-binding compound of SEQ ID NO: 86]: in the assay with growth factor receptors, the p-Smad1/5/8 (%) was 26%. The same measure, in the same setting: under ASAAPSSVPQALRSVKVAKV [GFR-binding compound of SEQ ID NO: 88] stands 37%; under YVPKPSSAPTKLNAISVLYF [GFR-binding compound of SEQ ID NO: 99], 66%; under GIPEPSSTPTKMSPINMLYF [GFR-binding compound of SEQ ID NO: 94], 39%.

In the assay with growth factor receptors, NDEGLESVPTEESAISMLYL [GFR-binding compound of SEQ ID NO: 96] showed a p-Smad1/5/8 (%) of 78%.

For the molecule KIPKASSTPTELSPINMLYF [GFR-binding compound of SEQ ID NO: 93], the p-Smad1/5/8 (%) with growth factor receptors came to 47%. Still for that read-out and setting: under ASAAPSSVPQALSSLSILFF [GFR-binding compound of SEQ ID NO: 67] stands 38%; under KVGKASSVPTKLEPISILYL [GFR-binding compound of SEQ ID NO: 71], 66%; under ASASPSSVPQDLRSVKVAKV [GFR-binding compound of SEQ ID NO: 90], 56%.

In the case of ASASPSSVSQDLEPLTILYY [GFR-binding compound of SEQ ID NO: 78], the p-Smad1/5/8 (%) with growth factor receptors turned out to be 52%. The same measure, in the same setting: with VSQDLRSVKVAKV [GFR-binding compound of SEQ ID NO: 89] the figure was 36%; with NDEGLESVPTEESSLSILFF [GFR-binding compound of SEQ ID NO: 80], 27%. On the same count and under the same terms, under KIPKASSVPQELEPLPIVYY [GFR-binding compound of SEQ ID NO: 74] stands 44%; under NDEGLESVPTEEEPLTILYY [GFR-binding compound of SEQ ID NO: 79], 58%.

The molecule VPTGQSAISMLYL [GFR-binding compound of SEQ ID NO: 95] showed a p-Smad1/5/8 (%) with growth factor receptors of 52%. Take TKPTSTPTKLSPINMLYF [GFR-binding compound of SEQ ID NO: 65]: the p-Smad1/5/8 (%) with growth factor receptors came out at 36%.

RNVQSRPTQVQLKPLSMLYV [GFR-binding compound of SEQ ID NO: 73] returned a p-Smad1/5/8 (%) with growth factor receptors of 48%. Still for that read-out and setting: with GIPEPSSVPQKMEPLPIVYY [GFR-binding compound of SEQ ID NO: 75] the figure was 51%; with AVPKASSAPTKLEPISILYL [GFR-binding compound of SEQ ID NO: 70], 67%; with RNVQSRPTQVQLSPISILFI [GFR-binding compound of SEQ ID NO: 98], 34%.

Take SIPKASSTPTELSPINMLYF [GFR-binding compound of SEQ ID NO: 64]: the p-Smad1/5/8 (%) with growth factor receptors stood at 37%. Same read-out and setting: under TQVKMRPVQVRKI [GFR-binding compound of SEQ ID NO: 92] stands 44%; under ASAAPSSAPTALSATSVLYY [GFR-binding compound of SEQ ID NO: 82], 41%; under ASAAPSSVPQALEPLTILYY [GFR-binding compound of SEQ ID NO: 77], 55%.

In the assay with growth factor receptors, RVPSTSSAPTKTSATSVLYY [GFR-binding compound of SEQ ID NO: 81] yielded a p-Smad1/5/8 (%) of 34%.

SSVKSQPSRVHHKPLSMLYV [GFR-binding compound of SEQ ID NO: 72] registered a p-Smad1/5/8 (%) in the assay with growth factor receptors of 47%.

In turn, HVPKPSSAPTKLEPISILYL [GFR-binding compound of SEQ ID NO: 100] had a p-Smad1/5/8 (%) with growth factor receptors of 75%.

Regarding KASKASSVPQKLEPLPIVYY [GFR-binding compound of SEQ ID NO: 85], the p-Smad1/5/8 (%) in the assay with growth factor receptors turned out to be 22%. The molecule YVPKPSSTPTKLSPINMLYF [GFR-binding compound of SEQ ID NO: 66] yielded a p-Smad1/5/8 (%) with growth factor receptors of 38%.

Turning to SSVKSQPSRVHHSPISILFI [GFR-binding compound of SEQ ID NO: 97], the p-Smad1/5/8 (%) with growth factor receptors is 39%. Still for that read-out and setting: with VVPKPSSAPTQLEPISILYL [GFR-binding compound of SEQ ID NO: 69] the figure was 39%; with ASASPSSVSQDLSSLSILFF [GFR-binding compound of SEQ ID NO: 68], 40%.

With TVPKPSSAPTQLRSVKVAKV [GFR-binding compound of SEQ ID NO: 83], the p-Smad1/5/8 (%) with growth factor receptors amounted to 35%. Still for that read-out and setting: with KIPKASSVPTELSPISVLYK [GFR-binding compound of SEQ ID NO: 87] the figure was 32%; with SIPKASSVPQELEPLPIVYY [GFR-binding compound of SEQ ID NO: 76], 54%. Same read-out and setting: under NDEGLESVPTEERSVKVAKV [GFR-binding compound of SEQ ID NO: 91] stands 55%; under KVGKASSVPQKLEPLPIVYY [GFR-binding compound of SEQ ID NO: 84], 33%.
